In patent US20120321699A1:

Assays:
[1] = target: Influenza HA (Wisconsin) (influenza virus); experiment: Luminex assay, antibody 50 µg/ml
HCV E2 (HCV) = experiment: Luminex assay, antibody 50 µg/ml
SSA autoantigen [2] = experiment: Athena assay, mAb 25 ug/ml; positive >50
Jo 1 autoantigen [3] = experiment: Athena assay, mAb 25 ug/ml; positive >50
centromere B autoantigen [4] = experiment: Athena assay, mAb 25 ug/ml; positive >50
SSB autoantigen [5] = experiment: Athena assay, mAb 25 ug/ml; positive >50
RNP autoantigen [6] = experiment: Athena assay, mAb 25 ug/ml; positive >50
Scl 70 autoantigen [7] = experiment: Athena assay, mAb 25 ug/ml; positive >50
Sm autoantigen [8] = experiment: Athena assay, mAb 25 ug/ml; positive >50
Histone autoantigen [9] = experiment: Athena assay, mAb 25 ug/ml; positive >50
SSA autoantigen [10] = experiment: Athena assay, mAb 12.5 ug/ml; positive >50
Jo 1 autoantigen [11] = experiment: Athena assay, mAb 12.5 ug/ml; positive >50
centromere B autoantigen [12] = experiment: Athena assay, mAb 12.5 ug/ml; positive >50
SSB autoantigen [13] = experiment: Athena assay, mAb 12.5 ug/ml; positive >50
RNP autoantigen [14] = experiment: Athena assay, mAb 12.5 ug/ml; positive >50
Scl 70 autoantigen [15] = experiment: Athena assay, mAb 12.5 ug/ml; positive >50
Sm autoantigen [16] = experiment: Athena assay, mAb 12.5 ug/ml; positive >50
Histone autoantigen [17] = experiment: Athena assay, mAb 12.5 ug/ml; positive >50
SSA autoantigen [18] = experiment: Athena assay, mAb 6.25 ug/ml; positive >50
Jo 1 autoantigen [19] = experiment: Athena assay, mAb 6.25 ug/ml; positive >50
centromere B autoantigen [20] = experiment: Athena assay, mAb 6.25 ug/ml; positive >50
SSB autoantigen [21] = experiment: Athena assay, mAb 6.25 ug/ml; positive >50
RNP autoantigen [22] = experiment: Athena assay, mAb 6.25 ug/ml; positive >50
Scl 70 autoantigen [23] = experiment: Athena assay, mAb 6.25 ug/ml; positive >50
Sm autoantigen [24] = experiment: Athena assay, mAb 6.25 ug/ml; positive >50
Histone autoantigen [25] = experiment: Athena assay, mAb 6.25 ug/ml; positive >50
SSA autoantigen [26] = experiment: Athena assay, mAb 50 ug/ml; positive >50
Jo 1 autoantigen [27] = experiment: Athena assay, mAb 50 ug/ml; positive >50
centromere B autoantigen [28] = experiment: Athena assay, mAb 50 ug/ml; positive >50
SSB autoantigen [29] = experiment: Athena assay, mAb 50 ug/ml; positive >50
RNP autoantigen [30] = experiment: Athena assay, mAb 50 ug/ml; positive >50
Scl 70 autoantigen [31] = experiment: Athena assay, mAb 50 ug/ml; positive >50
Sm autoantigen [32] = experiment: Athena assay, mAb 50 ug/ml; positive >50
Histone autoantigen [33] = experiment: Athena assay, mAb 50 ug/ml; positive >50
A244 gD- gp120 (HIV-1) = experiment: SPR
[34] = target: A244gD+ gp120 (herpes simplex virus; HIV-1); experiment: SPR
[35] = target: HV00044 (6240 TZ5 140C) (HIV-1); experiment: SPR

Chain of A244gD+ gp120 (herpes simplex virus; HIV-1) (Q69091 26-52): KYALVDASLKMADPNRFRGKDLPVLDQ

Synagis (anti-RSV control mAb) (antibody)
background substracted RFUs [1]: 1 RFU
background substracted RFUs (HCV E2 (HCV)): 0.5 RFU

4E10 (antibody)
Autoreactivity (Athena) (SSA autoantigen [2]): 247
Autoreactivity (Athena) (Jo 1 autoantigen [3]): 138
Autoreactivity (Athena) (centromere B autoantigen [4]): 19
Autoreactivity (Athena) (SSB autoantigen [5]): 206
Autoreactivity (Athena) (RNP autoantigen [6]): 15
Autoreactivity (Athena) (Scl 70 autoantigen [7]): 4
Autoreactivity (Athena) (Sm autoantigen [8]): 7
Autoreactivity (Athena) (Histone autoantigen [9]): 274
Autoreactivity (Athena) (SSA autoantigen [10]): 169
Autoreactivity (Athena) (Jo 1 autoantigen [11]): 87
Autoreactivity (Athena) (centromere B autoantigen [12]): 13
Autoreactivity (Athena) (SSB autoantigen [13]): 124
Autoreactivity (Athena) (RNP autoantigen [14]): 9
Autoreactivity (Athena) (Scl 70 autoantigen [15]): 3
Autoreactivity (Athena) (Sm autoantigen [16]): 5
Autoreactivity (Athena) (Histone autoantigen [17]): 160
background substracted RFUs [1]: 0 RFU
background substracted RFUs (HCV E2 (HCV)): 89.2 RFU
Autoreactivity (Athena) (SSA autoantigen [18]): 115
Autoreactivity (Athena) (Jo 1 autoantigen [19]): 65
Autoreactivity (Athena) (centromere B autoantigen [20]): 9
Autoreactivity (Athena) (SSB autoantigen [21]): 93
Autoreactivity (Athena) (RNP autoantigen [22]): 6
Autoreactivity (Athena) (Scl 70 autoantigen [23]): 2
Autoreactivity (Athena) (Sm autoantigen [24]): 4
Autoreactivity (Athena) (Histone autoantigen [25]): 113
Autoreactivity (Athena) (SSA autoantigen [26]): 306
Autoreactivity (Athena) (Jo 1 autoantigen [27]): 156
Autoreactivity (Athena) (centromere B autoantigen [28]): 31
Autoreactivity (Athena) (SSB autoantigen [29]): 254
Autoreactivity (Athena) (RNP autoantigen [30]): 20
Autoreactivity (Athena) (Scl 70 autoantigen [31]): 3
Autoreactivity (Athena) (Sm autoantigen [32]): 9
Autoreactivity (Athena) (Histone autoantigen [33]): 333

CH03 (antibody)
Autoreactivity (Athena) (SSA autoantigen [2]): 6
Autoreactivity (Athena) (Jo 1 autoantigen [3]): 4
Autoreactivity (Athena) (centromere B autoantigen [4]): 34
Autoreactivity (Athena) (SSB autoantigen [5]): 4
Autoreactivity (Athena) (RNP autoantigen [6]): 70
Autoreactivity (Athena) (Scl 70 autoantigen [7]): 7
Autoreactivity (Athena) (Sm autoantigen [8]): 10
Autoreactivity (Athena) (Histone autoantigen [9]): 386
Autoreactivity (Athena) (SSA autoantigen [10]): 6
Autoreactivity (Athena) (Jo 1 autoantigen [11]): 4
Autoreactivity (Athena) (centromere B autoantigen [12]): 30
Autoreactivity (Athena) (SSB autoantigen [13]): 6
Autoreactivity (Athena) (RNP autoantigen [14]): 74
Autoreactivity (Athena) (Scl 70 autoantigen [15]): 8
Autoreactivity (Athena) (Sm autoantigen [16]): 9
Autoreactivity (Athena) (Histone autoantigen [17]): 359
background substracted RFUs [1]: 1 RFU
background substracted RFUs (HCV E2 (HCV)): 2910 RFU
Kd (A244 gD- gp120 (HIV-1)): 728 nM
Kd [34]: 15.6 nM
Kd [35]: 1060 nM
Autoreactivity (Athena) (SSA autoantigen [18]): 5
Autoreactivity (Athena) (Jo 1 autoantigen [19]): 3
Autoreactivity (Athena) (centromere B autoantigen [20]): 19
Autoreactivity (Athena) (SSB autoantigen [21]): 5
Autoreactivity (Athena) (RNP autoantigen [22]): 51
Autoreactivity (Athena) (Scl 70 autoantigen [23]): 4
Autoreactivity (Athena) (Sm autoantigen [24]): 7
Autoreactivity (Athena) (Histone autoantigen [25]): 231
Autoreactivity (Athena) (SSA autoantigen [26]): 9
Autoreactivity (Athena) (Jo 1 autoantigen [27]): 5
Autoreactivity (Athena) (centromere B autoantigen [28]): 98
Autoreactivity (Athena) (SSB autoantigen [29]): 7
Autoreactivity (Athena) (RNP autoantigen [30]): 132
Autoreactivity (Athena) (Scl 70 autoantigen [31]): 12
Autoreactivity (Athena) (Sm autoantigen [32]): 24
Autoreactivity (Athena) (Histone autoantigen [33]): 844

CH05 (antibody)
Autoreactivity (Athena) (SSA autoantigen [2]): 12.5
Autoreactivity (Athena) (Jo 1 autoantigen [3]): 3.5
Autoreactivity (Athena) (centromere B autoantigen [4]): 9
Autoreactivity (Athena) (SSB autoantigen [5]): 5.5
Autoreactivity (Athena) (RNP autoantigen [6]): 4.5
Autoreactivity (Athena) (Scl 70 autoantigen [7]): 1.5
Autoreactivity (Athena) (Sm autoantigen [8]): 3
Autoreactivity (Athena) (Histone autoantigen [9]): 14
Autoreactivity (Athena) (SSA autoantigen [10]): 8
Autoreactivity (Athena) (Jo 1 autoantigen [11]): 2.5
Autoreactivity (Athena) (centromere B autoantigen [12]): 6.5
Autoreactivity (Athena) (SSB autoantigen [13]): 5
Autoreactivity (Athena) (RNP autoantigen [14]): 3.5
Autoreactivity (Athena) (Scl 70 autoantigen [15]): 1.5
Autoreactivity (Athena) (Sm autoantigen [16]): 3.5
Autoreactivity (Athena) (Histone autoantigen [17]): 11
background substracted RFUs [1]: 5.5 RFU
background substracted RFUs (HCV E2 (HCV)): 1.3 RFU
Kd (A244 gD- gp120 (HIV-1)): 340 nM
Kd [34]: 26.1 nM
Kd [35]: 1450 nM
Autoreactivity (Athena) (SSA autoantigen [18]): 7
Autoreactivity (Athena) (Jo 1 autoantigen [19]): 2.5
Autoreactivity (Athena) (centromere B autoantigen [20]): 6
Autoreactivity (Athena) (SSB autoantigen [21]): 6
Autoreactivity (Athena) (RNP autoantigen [22]): 3
Autoreactivity (Athena) (Scl 70 autoantigen [23]): 1.5
Autoreactivity (Athena) (Sm autoantigen [24]): 2.5
Autoreactivity (Athena) (Histone autoantigen [25]): 10
Autoreactivity (Athena) (SSA autoantigen [26]): 27
Autoreactivity (Athena) (Jo 1 autoantigen [27]): 9
Autoreactivity (Athena) (centromere B autoantigen [28]): 14.5
Autoreactivity (Athena) (SSB autoantigen [29]): 13
Autoreactivity (Athena) (RNP autoantigen [30]): 9
Autoreactivity (Athena) (Scl 70 autoantigen [31]): 2
Autoreactivity (Athena) (Sm autoantigen [32]): 2.5
Autoreactivity (Athena) (Histone autoantigen [33]): 21.5

CH04 (antibody)
Autoreactivity (Athena) (SSA autoantigen [2]): 11
Autoreactivity (Athena) (Jo 1 autoantigen [3]): 3
Autoreactivity (Athena) (centromere B autoantigen [4]): 13
Autoreactivity (Athena) (SSB autoantigen [5]): 8
Autoreactivity (Athena) (RNP autoantigen [6]): 6
Autoreactivity (Athena) (Scl 70 autoantigen [7]): 2
Autoreactivity (Athena) (Sm autoantigen [8]): 2
Autoreactivity (Athena) (Histone autoantigen [9]): 16
Autoreactivity (Athena) (SSA autoantigen [10]): 7
Autoreactivity (Athena) (Jo 1 autoantigen [11]): 2.5
Autoreactivity (Athena) (centromere B autoantigen [12]): 8
Autoreactivity (Athena) (SSB autoantigen [13]): 4.5
Autoreactivity (Athena) (RNP autoantigen [14]): 4
Autoreactivity (Athena) (Scl 70 autoantigen [15]): 2
Autoreactivity (Athena) (Sm autoantigen [16]): 2.5
Autoreactivity (Athena) (Histone autoantigen [17]): 11
background substracted RFUs [1]: 2.5 RFU
background substracted RFUs (HCV E2 (HCV)): 0.5 RFU
Kd (A244 gD- gp120 (HIV-1)): 410 nM
Kd [34]: 25.5 nM
Kd [35]: 360 nM
Autoreactivity (Athena) (SSA autoantigen [18]): 6
Autoreactivity (Athena) (Jo 1 autoantigen [19]): 2
Autoreactivity (Athena) (centromere B autoantigen [20]): 6.5
Autoreactivity (Athena) (SSB autoantigen [21]): 6
Autoreactivity (Athena) (RNP autoantigen [22]): 3
Autoreactivity (Athena) (Scl 70 autoantigen [23]): 1.5
Autoreactivity (Athena) (Sm autoantigen [24]): 3
Autoreactivity (Athena) (Histone autoantigen [25]): 9.5
Autoreactivity (Athena) (SSA autoantigen [26]): 19
Autoreactivity (Athena) (Jo 1 autoantigen [27]): 5
Autoreactivity (Athena) (centromere B autoantigen [28]): 18
Autoreactivity (Athena) (SSB autoantigen [29]): 11
Autoreactivity (Athena) (RNP autoantigen [30]): 9
Autoreactivity (Athena) (Scl 70 autoantigen [31]): 3
Autoreactivity (Athena) (Sm autoantigen [32]): 3
Autoreactivity (Athena) (Histone autoantigen [33]): 26

CH02 (antibody)
Autoreactivity (Athena) (SSA autoantigen [2]): 6
Autoreactivity (Athena) (Jo 1 autoantigen [3]): 1.5
Autoreactivity (Athena) (centromere B autoantigen [4]): 9.5
Autoreactivity (Athena) (SSB autoantigen [5]): 4.5
Autoreactivity (Athena) (RNP autoantigen [6]): 9
Autoreactivity (Athena) (Scl 70 autoantigen [7]): 2
Autoreactivity (Athena) (Sm autoantigen [8]): 3
Autoreactivity (Athena) (Histone autoantigen [9]): 11.5
Autoreactivity (Athena) (SSA autoantigen [10]): 5
Autoreactivity (Athena) (Jo 1 autoantigen [11]): 1
Autoreactivity (Athena) (centromere B autoantigen [12]): 7
Autoreactivity (Athena) (SSB autoantigen [13]): 3.5
Autoreactivity (Athena) (RNP autoantigen [14]): 6
Autoreactivity (Athena) (Scl 70 autoantigen [15]): 1.5
Autoreactivity (Athena) (Sm autoantigen [16]): 2.5
Autoreactivity (Athena) (Histone autoantigen [17]): 8.5
background substracted RFUs [1]: 0.3 RFU
background substracted RFUs (HCV E2 (HCV)): 333 RFU
Kd [34]: 450 nM
Autoreactivity (Athena) (SSA autoantigen [18]): 5
Autoreactivity (Athena) (Jo 1 autoantigen [19]): 1.5
Autoreactivity (Athena) (centromere B autoantigen [20]): 6
Autoreactivity (Athena) (SSB autoantigen [21]): 5
Autoreactivity (Athena) (RNP autoantigen [22]): 5
Autoreactivity (Athena) (Scl 70 autoantigen [23]): 2
Autoreactivity (Athena) (Sm autoantigen [24]): 2.5
Autoreactivity (Athena) (Histone autoantigen [25]): 7
Autoreactivity (Athena) (SSA autoantigen [26]): 5.5
Autoreactivity (Athena) (Jo 1 autoantigen [27]): 2
Autoreactivity (Athena) (centromere B autoantigen [28]): 12.5
Autoreactivity (Athena) (SSB autoantigen [29]): 4.5
Autoreactivity (Athena) (RNP autoantigen [30]): 12.5
Autoreactivity (Athena) (Scl 70 autoantigen [31]): 2.5
Autoreactivity (Athena) (Sm autoantigen [32]): 3.5
Autoreactivity (Athena) (Histone autoantigen [33]): 15.5
